PMC2680336

Target: Ect2 (UniProt Q9H8V3)
Test: anti-myc IP, anti-FLAG blot
Conditions: reference: wild-type FLAG-HsCYK-4; sites S157

With “HsCYK-4 (MgcRacGAP) (from UniProt Q9H0H5) S157A” the “binding against the reference” value was “weaker”.
